Laboratory results published in US20220193271A1 (REGENTS OF THE UNIVERSITY OF MICHIGAN, published 2022).
Primed or numbered codes have the meaning given here. Ends that are not written are not given here. Cy5.5 = cyanine fluorophore coupled as NHS ester to the lysine side chain; Cy5.5″ = fluorophore Cy5.5, coupled as NHS ester to Lys side chain

Columns and labels:
[1] = biological target: human cMet on cells (HT29 human colorectal cancer cells; S114 cells; human colon tissue and organoids) (human) (UniProt P08581); assay: confocal microscopy, S114 versus NIH3T3 cells
Chain of human cMet on cells (HT29 human colorectal cancer cells; S114 cells; human colon tissue and organoids) (human) (P08581 25-1390): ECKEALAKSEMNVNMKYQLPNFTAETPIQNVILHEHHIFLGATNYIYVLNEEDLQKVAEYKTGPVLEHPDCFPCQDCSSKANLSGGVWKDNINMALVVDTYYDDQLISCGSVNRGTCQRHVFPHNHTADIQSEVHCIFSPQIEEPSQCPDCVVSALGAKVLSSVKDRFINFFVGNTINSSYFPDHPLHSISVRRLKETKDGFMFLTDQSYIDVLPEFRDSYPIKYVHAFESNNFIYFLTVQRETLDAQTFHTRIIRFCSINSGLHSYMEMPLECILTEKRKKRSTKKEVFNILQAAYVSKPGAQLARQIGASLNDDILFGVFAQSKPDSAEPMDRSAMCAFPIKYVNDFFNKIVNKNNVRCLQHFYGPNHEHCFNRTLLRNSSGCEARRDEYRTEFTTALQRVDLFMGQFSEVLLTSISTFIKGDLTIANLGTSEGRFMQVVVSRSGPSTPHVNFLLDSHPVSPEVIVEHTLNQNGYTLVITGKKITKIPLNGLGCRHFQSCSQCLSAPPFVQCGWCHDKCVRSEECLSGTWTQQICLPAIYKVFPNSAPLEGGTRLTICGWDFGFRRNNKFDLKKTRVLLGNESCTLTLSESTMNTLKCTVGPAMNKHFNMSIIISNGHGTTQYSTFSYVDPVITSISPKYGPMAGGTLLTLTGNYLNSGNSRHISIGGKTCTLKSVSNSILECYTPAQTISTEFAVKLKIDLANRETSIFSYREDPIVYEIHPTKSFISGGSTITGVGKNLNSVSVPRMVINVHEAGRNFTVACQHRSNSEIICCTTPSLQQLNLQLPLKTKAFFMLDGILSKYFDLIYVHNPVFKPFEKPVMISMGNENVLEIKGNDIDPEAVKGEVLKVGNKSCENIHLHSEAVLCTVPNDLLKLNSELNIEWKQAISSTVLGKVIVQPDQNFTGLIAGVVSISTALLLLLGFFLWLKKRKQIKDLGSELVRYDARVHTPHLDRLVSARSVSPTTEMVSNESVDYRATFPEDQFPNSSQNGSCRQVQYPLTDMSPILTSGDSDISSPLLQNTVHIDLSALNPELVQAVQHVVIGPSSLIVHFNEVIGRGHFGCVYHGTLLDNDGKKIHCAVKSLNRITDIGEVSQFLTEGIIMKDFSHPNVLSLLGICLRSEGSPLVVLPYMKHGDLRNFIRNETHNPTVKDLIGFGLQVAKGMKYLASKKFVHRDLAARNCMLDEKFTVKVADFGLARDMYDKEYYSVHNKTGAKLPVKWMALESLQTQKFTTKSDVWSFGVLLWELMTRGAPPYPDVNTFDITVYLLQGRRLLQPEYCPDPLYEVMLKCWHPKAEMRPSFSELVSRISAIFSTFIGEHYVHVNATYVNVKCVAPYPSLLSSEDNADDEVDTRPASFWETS

[2] = biological target: human cMet on cells (HT29 human colorectal cancer cells; S114 cells; human colon tissue and organoids) (human) (UniProt P08581); assay: confocal microscopy, HT29 versus SW480 cells
[3] = biological target: human cMet on cells (HT29 human colorectal cancer cells; S114 cells; human colon tissue and organoids) (human) (UniProt P08581); assay: confocal microscopy, HT29 cells with control or cMet siRNA
[4] = biological target: T1, human cMet on cells (HT29 human colorectal cancer cells; S114 cells; human colon tissue and organoids) (human, UniProt P08581 25-1390); assay: confocal microscopy, S114 versus NIH3T3 cells, 5 µM peptide
T1 construct: whole, on cells; also called mesenchymal-epithelial transition factor
T1 sequence (P08581 25-1390): as above
Text: (§1) FIG. 11. Peptide validation with mouse cells in vitro. […] Two-way ANOVA models were fit with terms for 6 conditions and 6 replicate slides on log-transformed data. Measurements were an average of 5 randomly chosen cells on 6 slides for each condition. […] An ANOVA model was fit to log-transformed data with terms for 6 conditions. There were 6 replicate slides per condition and 10 cells measured per slide.
(§2) HT29, SW480, S114 and NIH3T3 cells were inoculated in 12-well cell culture plates with circle glass coverslips to about 80% confluence. The cells were blocked with 1×PBS plus 2% BSA for 1 hour at 4° C., then were incubated with 5 μM peptides for 10 min at RT in the dark, washed thrice, and fixed with 4% PFA for 5 min, washed with 1×PBS, then mounted on glass slides with ProLong Gold reagent containing DAPI (Invitrogen, Waltham, Mass.).

[5] = biological target: T1, human cMet on cells (HT29 human …); assay: flow cytometry, QQT*-Cy5.5 at 0-200 nmol/L on HT29 cells, 1 hour at 4 °C
Experimental: We assessed the binding affinity of QQT*-Cy5.5 to HT29 cells by measuring the apparent dissociation constant. HT29 cells were blocked with 0.5% BSA, and then approximately 10⁵ cells were incubated with QQT*-Cy5.5 at concentrations of 0, 10, 25, 50, 75, 100, 125, 150, or 200 nmol/L for 1 hour at 4° C. Cells then were washed 3 times with 1×PBS containing 0.5% BSA to remove unbound peptides before analysis with flow cytometry (FACS Canto; BD Biosciences, San Jose, Calif.). Sample means were used to calculate the equilibrium dissociation constant KD using nonlinear regression analysis with Origin 6.1 data analysis software (OriginLab, Northampton, Mass.). […] I₀ and Iₘₐₓ are the initial and maximum fluorescence intensities, corresponding to no peptide and peptide saturation, respectively, and [X] represents the concentration of the bound peptide.³⁴
Specific binding of QQT*-Cy5.5 to cMet was confirmed by adding unlabeled QQT* to compete for binding. […] An apparent dissociation constant of kd=57 nM was measured for binding by QQT*-Cy5.5 to HT29 cells using flow cytometry, FIG. 3C, and an apparent association time constant of k=0.62 min⁻¹ (1.6 min) was measured for the same cells, supporting rapid binding with topical administration, FIG. 3D.

[6] = biological target: T1, human cMet on cells (HT29 human …); assay: confocal microscopy, S114 cells, reference TLQ*-Cy5.5
Text: as §1, §2

[7] = biological target: T2, mouse cMet on colonocytes of CPC;Apc mouse colon (mouse, UniProt P16056 25-1379); assay: ex vivo NIR fluorescence imaging of excised CPC;Apc mouse colon
T2 construct: whole, on cells; Target in tissue staining; also called cMet (mouse colon adenoma / dysplasia)
T2 sequence (P16056 25-1379): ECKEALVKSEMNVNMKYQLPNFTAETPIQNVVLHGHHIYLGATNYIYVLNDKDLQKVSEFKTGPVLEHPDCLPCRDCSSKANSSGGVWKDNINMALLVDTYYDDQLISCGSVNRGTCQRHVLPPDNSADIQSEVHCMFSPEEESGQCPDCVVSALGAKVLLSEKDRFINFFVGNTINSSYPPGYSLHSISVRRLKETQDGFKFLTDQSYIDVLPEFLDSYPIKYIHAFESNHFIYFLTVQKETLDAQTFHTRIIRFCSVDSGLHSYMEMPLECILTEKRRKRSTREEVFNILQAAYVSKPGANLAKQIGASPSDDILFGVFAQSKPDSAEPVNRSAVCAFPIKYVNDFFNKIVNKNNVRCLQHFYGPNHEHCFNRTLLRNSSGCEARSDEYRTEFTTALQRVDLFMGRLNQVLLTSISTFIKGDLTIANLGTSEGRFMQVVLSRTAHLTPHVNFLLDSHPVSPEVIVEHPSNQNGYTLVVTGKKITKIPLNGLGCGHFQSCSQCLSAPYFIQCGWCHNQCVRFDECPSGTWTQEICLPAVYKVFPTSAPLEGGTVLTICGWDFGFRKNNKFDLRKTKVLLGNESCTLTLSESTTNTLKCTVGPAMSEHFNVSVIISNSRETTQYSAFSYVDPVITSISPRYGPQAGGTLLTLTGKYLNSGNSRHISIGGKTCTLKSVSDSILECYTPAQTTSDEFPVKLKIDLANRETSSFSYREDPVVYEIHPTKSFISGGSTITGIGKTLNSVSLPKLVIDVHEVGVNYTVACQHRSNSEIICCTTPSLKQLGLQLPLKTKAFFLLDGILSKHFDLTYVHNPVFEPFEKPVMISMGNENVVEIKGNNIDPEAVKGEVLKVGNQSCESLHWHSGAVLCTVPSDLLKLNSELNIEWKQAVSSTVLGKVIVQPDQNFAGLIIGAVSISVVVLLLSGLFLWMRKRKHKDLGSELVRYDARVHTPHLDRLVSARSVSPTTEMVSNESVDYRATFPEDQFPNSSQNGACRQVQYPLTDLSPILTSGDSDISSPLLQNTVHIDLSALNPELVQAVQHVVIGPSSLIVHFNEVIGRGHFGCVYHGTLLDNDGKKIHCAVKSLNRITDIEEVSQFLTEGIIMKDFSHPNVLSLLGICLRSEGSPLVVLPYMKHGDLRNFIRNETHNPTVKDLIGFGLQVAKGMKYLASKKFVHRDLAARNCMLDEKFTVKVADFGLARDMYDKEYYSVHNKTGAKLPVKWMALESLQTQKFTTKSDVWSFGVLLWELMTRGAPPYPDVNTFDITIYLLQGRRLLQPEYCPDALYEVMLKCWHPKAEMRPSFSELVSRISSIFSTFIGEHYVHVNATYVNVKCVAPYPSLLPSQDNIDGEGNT
Experimental: After imaging was completed, the mice were euthanized. The colon was resected and divided longitudinally, the colon was excised, flushed with PBS, and opened longitudinally for imaging with the NIR fluorescence imaging system (Pearl®, LI-COR Biosciences). Images were collected with […] resolution using λex=685 nm and λem=720 nm. Images were analyzed with custom software (Image Studio, Li-Cor Biosciences). The normal colon region with an equal area adjacent to the polyps was used to measure background. Prism software (v6.02, GraphPad) was used to plot data.
After imaging was completed, the CPC;Apc mice were euthanized, and the colon was excised and divided longitudinally to expose the mucosal surface for collection of macroscopic white light and fluorescence images, FIGS. 5 L,M and 13A, B. The polyp locations co-localized on white light and fluorescence images, FIG. 13C. […] Immunohistochemistry was performed with a known antibody to validate increased expression of cMet in mouse dysplasia, FIG. 13E, by comparison with normal colonic mucosa, FIG. 13F.

[8] = biological target: T1, human cMet on cells (HT29 human …); assay: confocal microscopy, HT29 versus SW480 cells, 5 µM peptide
Experimental: FIG. 10. Peptide validation with human colorectal cancer cells in vitro. […] Two-way ANOVA models were fit with terms for 6 conditions and 6 replicate slides on log-transformed data. Measurements were an average of 5 randomly chosen cells on 6 slides for each condition.
(§3) HT29, SW480, S114 and NIH3T3 cells were inoculated in 12-well cell culture plates with circle glass coverslips to about 80% confluence. The cells were blocked with 1×PBS plus 2% BSA for 1 hour at 4° C., then were incubated with 5 μM peptides for 10 min at RT in the dark, washed thrice, and fixed with 4% PFA for 5 min, washed with 1×PBS, then mounted on glass slides with ProLong Gold reagent containing DAPI (Invitrogen, Waltham, Mass.). As positive control, after blocking with 2% BSA for 1 hour at 4° C., A 1:3000 dilution of primary monoclonal rabbit anti-cMet antibody (Cell Signaling Technology, #8198) was incubated with cells overnight at 4° C. […] Confocal fluorescence images were collected using a 63× oil-immersion objective (Leica SP5 Inverted 2-Photon FLIM Confocal). Fluorescence intensities from five cells in two independent images were quantified using custom Matlab (Mathworks) software.

[9] = biological target: T1, human cMet on cells (HT29 human …); assay: confocal microscopy, HT29 cells with control or cMet siRNA, 5 µM peptide
Text: FIG. 2. In vitro validation with cMet knockdown. […] Fluorescence intensities for D) peptide and E) antibody were reduced with HT29 knockdown cells transfected with sicMet-targeting siRNA. […] A two-way ANOVA model was fit with terms for 6 conditions and 6 replicate slides on log-transformed data. Measurements were an average of 5 randomly chosen cells on 6 slides for each condition.
as §3

How did the fold change of mean intensity, S114 (cMet+) versus NIH3T3 (cMet-) cells [1] turn out when “primary monoclonal rabbit anti-cMet antibody (Cell Signaling Technology, #8198) detected with AF488-labeled secondary antibody” was run?
The fold change of mean intensity, S114 (cMet+) versus NIH3T3 (cMet-) cells was 6.7 fold.

What about the fold change of mean intensity, HT29 (cMet+) versus SW480 (cMet-) cells [2] of the same molecule?
Its fold change of mean intensity, HT29 (cMet+) versus SW480 (cMet-) cells is 4.3 fold.

What about the fold reduction of fluorescence intensity with knockdown of cMet (siCL versus sicMet HT29 cells) [3] of the same molecule?
Its fold reduction of fluorescence intensity with knockdown of cMet (siCL versus sicMet HT29 cells) is 4.1 fold.

B1: QQT*-Cy5.5 (peptide QQTNWSL linked at its C-terminus through a GGGSK linker to the fluorophore Cy5.5) (peptide)
peptide: QQTNWSLGGGSK(Cy5.5)-NH2
notes: Linear monomer made by Fmoc solid-phase synthesis; m/z 1827.67; also called target peptide
Which “fold change of mean intensity, S114 (cMet+) versus NIH3T3 (cMet-) cells” value [4] does the source give for B1 here?
Its value is 2.4 fold.

What about the Kd [5] of the same molecule?
The Kd was 57 nM.

And the “fold fluorescence intensity versus TLQ*-Cy5.5” value [6]?
Its value is 7 fold.

Does B1 bind [7]?
Result: binds

What about the “fold change of mean intensity, HT29 (cMet+) versus SW480 (cMet-) cells” value [8] of the same molecule?
The value was 2.1 fold.

What about the “fold reduction of fluorescence intensity with knockdown of cMet (siCL versus sicMet HT29 cells)” value [9] of the same molecule?
The value was 2.9 fold.

B2: TLQ*-Cy5.5 (scrambled control peptide TLQWNQS linked through a GGGSK linker to Cy5.5) (peptide)
peptide: TLQWNQSGGGSK(Cy5.5″)-NH2
notes: Scrambled control of QQT*-Cy5.5; also called TQL*-Cy5.5
For B2, which “fold change of mean intensity, S114 (cMet+) versus NIH3T3 (cMet-) cells” value [4] is on record?
Its value is 0.72 fold.

What about the “fold change of mean intensity, HT29 (cMet+) versus SW480 (cMet-) cells” value [8] of the same molecule?
The value was 0.85 fold.

And the “fold change of fluorescence intensity with knockdown of cMet (siCL versus sicMet HT29 cells)” value [9]?
The value was 0.96 fold.
